Measured values as given in US20110086364A1 (TEKNOLOGIAN TUTKIMUSKESKUS VTT, published 2011).

Biological target: T1, immune complex of anti-THC T3 Fab and THC (tetrahydrocannabinol)
T1 construct: the target is the Fab-hapten complex; The Fab was labeled with europium (LANCE Eu-W1024 ITC chelate) for TR-FRET and biotinylated for phage selection; also called T3+THC complex; T3+THC immune complex
Assay: homogeneous TR-FRET in saliva: Eu-labeled T3 Fab, Alexa Fluor 647-labeled Fab 104, spiked THC
Procedure: 40 μl saliva samples spiked with 0, 3.75, 7.5, 15, 30, 60 and 120 ng/ml of the following drugs: D9-THC, 11-OH-D9-THC, 11-nor-D9-THC-COOH, heroin and amphetamine were added to the wells. After short mixing, the time resolved fluorescence resonance energy transfer (TR-FRET) was measured by Victor V fluorometer (Perkin Elmer Wallac).

T1 sequence (VH, as listed by the source, chain 1 of 2): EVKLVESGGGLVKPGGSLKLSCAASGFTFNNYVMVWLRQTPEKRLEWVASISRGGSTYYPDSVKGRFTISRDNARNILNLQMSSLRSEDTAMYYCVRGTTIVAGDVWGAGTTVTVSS
T1 sequence (VL, as listed by the source, chain 2 of 2): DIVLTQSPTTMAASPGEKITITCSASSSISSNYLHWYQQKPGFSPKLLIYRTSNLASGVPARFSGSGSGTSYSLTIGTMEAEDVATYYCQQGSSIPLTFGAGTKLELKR

B1: anti-T3+THC immune complex Fab 104 (Fab, V domains shown)
VH: QVQLVQSGTEVKKPGATVKISCKFSGDNFIDYYMHWVKQAQGKGLEWLGLVDLGDGQTIYAEKFHGRGTITADSSRDTAYMELSSLRSEDTAVYYCAAAKAYRQGVMDVWGQGTLVTVSS
VL: NFMLTQPHSVSESPGKTVTISCTGSSGSIASNYVQWYQQRPGSAPTTVIYEDNQRPSGVPDRFSGSIDSSSNSASLTISGLKTEDEADYYCQSYDSSNQVFGGGTKLTVLG
notes: Labeled with Alexa Fluor 647 for the TR-FRET assay
B1: binds.
